The values below come from publication doi:10.1101/177840.

This test concerns the target His-tagged full-length Ajuba (UniProt Q96IF1). The experiment in a line: pull-down.

Sequence of RPA70-OB½ABC, aa 234-612 (P27694 234-612): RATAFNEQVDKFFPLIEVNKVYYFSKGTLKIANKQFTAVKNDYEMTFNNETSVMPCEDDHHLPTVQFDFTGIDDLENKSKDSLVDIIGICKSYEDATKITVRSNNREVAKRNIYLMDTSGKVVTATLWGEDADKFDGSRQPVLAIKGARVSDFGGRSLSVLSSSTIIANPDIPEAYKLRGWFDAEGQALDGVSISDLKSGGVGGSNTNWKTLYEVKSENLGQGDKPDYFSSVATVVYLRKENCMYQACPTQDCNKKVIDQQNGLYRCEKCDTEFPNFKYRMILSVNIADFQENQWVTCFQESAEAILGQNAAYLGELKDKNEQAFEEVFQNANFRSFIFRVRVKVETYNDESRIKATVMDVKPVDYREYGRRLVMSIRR

“RPA70-OB½ABC, aa 234-612 (from UniProt P27694 234-612) (domain or fragment)” yielded a pull down relative to full-length RPA70 (100%) of 58.7%.
